Earlier results as cited in article PMC5615855.

Molecular target: N2B (HEB) N2B (Homo sapiens) (UniProt Q99081)

In the case of “NHR2 (AML1-ETO) NHR2 (from UniProt Q06455)”, the Kd is listed as 356 µM.
